Data taken from the supplement of paper PMC9170038.

Test system: MS2 coat protein
Experiment: apparent KD of MS2 coat protein; designed switch direction (-1 OFF switch, 1 ON switch): 1; higher = weaker reporter binding
Summary of the method: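 Designed RNA switches sharing common flanks were transcribed on Illumina chips by stalled E. coli RNA polymerase. They were titrated with SNAP-549-labelled MS2 coat protein, from 0.7 or 1.5 nM doubling to 3 µM, in Tris-HCl pH 7.5 buffer with KCl, MgCl2, BSA, DTT, tRNA and Tween-20. Titrations ran without input, with 200 uM small-molecule ligand, or with an oligonucleotide input. The apparent KD of each design is the median over its clusters, after curve-fitting of normalised cluster fluorescence.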

[1] = input ligand: microRNA oligo, concentration not stated
[2] = Eterna round: R95, input ligand: FMN 200 uM
[3] = Eterna round: R95, input ligand: microRNA oligo, concentration not stated
[4] = Eterna round: R95, input ligand: none

## UGUUGUAUUACAGGAUAUCUAUUAUUUUGAUUUAGAGAAGGGUAUUCACAUGAGGAUCACCCAUGUAUAUACGAGGAAGUUGUG [JMF's solution 22] (Eterna round: R96, puzzle: Same State NG 1)
[1]
  apparent KD of MS2 coat protein: 34.4 nM

## UGUUGUAUUACAGGAUAUCUAUUGUUUUUAGUUAGAGAAGGGUAUUCACAUGAGGAUCACCCAUGUAUAUACGAGGAAGUUGUG [JMF's solution 82] (Eterna round: R96, puzzle: Same State NG 1)
Input ligand: FMN 200 uM
  apparent KD of MS2 coat protein: 59.9 nM
[1]
  apparent KD of MS2 coat protein: 34.6 nM
Input ligand: none
  apparent KD of MS2 coat protein: 49.9 nM

## UGUUGUUAAUUAGGAUAUGGGCACAUGAGGAUCACCCAUGUAUUGUCGAUGCUAUGUGGACACGUUUAGAAGGAAUGGCUAACA [SameState NG2 #91] (Eterna round: R96, puzzle: Same State NG 2)
Input ligand: FMN 200 uM
  apparent KD of MS2 coat protein: 64.4 nM
[1]
  apparent KD of MS2 coat protein: 55.4 nM
Input ligand: none
  apparent KD of MS2 coat protein: 64.8 nM

## UUAACAUGAGGAUCACCCAUGUAUAGGGAGUUAGCAAUUUGACAGGAUAUUGAAGAUGUAGAUAGCAAGAAGGGUCGGUAGUCU [JR_SSNG3_Sub003] (Eterna round: R96, puzzle: Same State NG 3)
Input ligand: FMN 200 uM
  apparent KD of MS2 coat protein: 39.9 nM
[1]
  apparent KD of MS2 coat protein: 41.3 nM
Input ligand: none
  apparent KD of MS2 coat protein: 45.9 nM

## UUAAGCCACGGGCAGGAUAUGUAUUAAAAUACAUGAGGAUCACCCAUGUGCAGGUGUAACACCUGACAGAAGGGCCAAUCGAGGC [Soteed - 6] (puzzle: Same State 2)
[2]
  apparent KD of MS2 coat protein: 36.6 nM
[3]
  apparent KD of MS2 coat protein: 182 nM
[4]
  apparent KD of MS2 coat protein: 284 nM

## UUAAUAAUGAUAGGAUAUACAUGAGGAAUUCUCGUAGAAGGAUCAUGACAUGAGGAUCACCCAUGUAUCGCUCGAUAGAGCGUA [Mat - Same State NG 1 - JL mod - D35] (Eterna round: R96, puzzle: Same State NG 1)
Input ligand: FMN 200 uM
  apparent KD of MS2 coat protein: 447 nM
[1]
  apparent KD of MS2 coat protein: 149 nM
Input ligand: none
  apparent KD of MS2 coat protein: 326 nM

## UUAAUGAAGUAAGGAUAUACAUGAGGAUUUCUCGUAGAAGGUACUAUACAUGAGGAUCACCCAUGUGCCGGUCCGUAGACUGGA [JL SSNG1 1.05] (Eterna round: R96, puzzle: Same State NG 1)
Input ligand: FMN 200 uM
  apparent KD of MS2 coat protein: 342 nM
[1]
  apparent KD of MS2 coat protein: 297 nM
Input ligand: none
  apparent KD of MS2 coat protein: 607 nM

## UUAAUGAUGAUAGGAUAUACAUGAGGAAUUCUCGUAGAAGGAUCAUGACAUGAGGAUCACCCAUGUAUCGCUCGAAAGAGCGUA [Mat - Same State NG 1 - JL mod - D33] (Eterna round: R96, puzzle: Same State NG 1)
Input ligand: FMN 200 uM
  apparent KD of MS2 coat protein: 570 nM
[1]
  apparent KD of MS2 coat protein: 234 nM
Input ligand: none
  apparent KD of MS2 coat protein: 205 nM

## UUAAUUAUGUAAGGAUAUACAUGAGGAUUUCUCGUAGAAGGUACAUUACAUGAGGAUCACCCAUGUAGGUGUCCGUAGACGCCA [JL SSNG1 1.07] (Eterna round: R96, puzzle: Same State NG 1)
Input ligand: FMN 200 uM
  apparent KD of MS2 coat protein: 142 nM
[1]
  apparent KD of MS2 coat protein: 78.3 nM
Input ligand: none
  apparent KD of MS2 coat protein: 129 nM

## UUAAUUUACUGAGGAUAUCGUGUCGACUGAGGUGACAUGAGGAUCACCCAUGUGAGAAGAGGUAUCGAGAAGGCAGUAUUCAUA [JR_SSNG2_Sub021] (Eterna round: R96, puzzle: Same State NG 2)
Input ligand: FMN 200 uM
  apparent KD of MS2 coat protein: 317 nM
[1]
  apparent KD of MS2 coat protein: 545 nM
Input ligand: none
  apparent KD of MS2 coat protein: 1120 nM

## UUACUCAUGUAAGGAUAUGCAGCCGAAACGGCUGCAGAAGGUACUAUAAUACAUGAGGAUCACCCAUGUCAAAAUAAUUUUUAC [Mat - Same State NG 1 - JL mod - D71] (Eterna round: R96, puzzle: Same State NG 1)
Input ligand: FMN 200 uM
  apparent KD of MS2 coat protein: 44.9 nM
[1]
  apparent KD of MS2 coat protein: 21.7 nM
Input ligand: none
  apparent KD of MS2 coat protein: 27.5 nM

## UUACUCAUGUAAGGAUAUGCAGCCGUUUCGGCUGCAGAAGGUACUAUAAUACAUGAGGAUCACCCAUGUCUCUAUUAUUUAGUU [JL SSNG1 1.43] (Eterna round: R96, puzzle: Same State NG 1)
Input ligand: FMN 200 uM
  apparent KD of MS2 coat protein: 151 nM
[1]
  apparent KD of MS2 coat protein: 39.6 nM
Input ligand: none
  apparent KD of MS2 coat protein: 52.7 nM

## UUAUAACAUGAGGAUCACCCAUGUCAACAAAGUCGAGGAUAUGGGCAUAGAUUAUAAGAACCAGAAGGCGAAUAUG [Mat - Same State 1 - Mod of UCT - D41] (puzzle: Same State 1)
[2]
  apparent KD of MS2 coat protein: 140 nM
[3]
  apparent KD of MS2 coat protein: 11.3 nM
[4]
  apparent KD of MS2 coat protein: 1.69 nM

## UUAUUCUAUAUAGGAUAUUGAUGCAAUUUACCUCAAGAAGGAUAUACAUGAGGAUCACCCAUGUUGGAUAGGGUUAGUUUGUUU [JR_SSNG1_Sub081] (Eterna round: R96, puzzle: Same State NG 1)
[1]
  apparent KD of MS2 coat protein: 56 nM

## UUCCCAUCGGGAGGAUAUGGUGCCUUAUUGGUGCUAGAAGGUCCAACAUGAGGAUCACCCAUGUGGGAGUGGUCUAAUGACCUC [SS NG10LRO06] (Eterna round: R96, puzzle: Same State NG 1)
Input ligand: FMN 200 uM
  apparent KD of MS2 coat protein: 338 nM
[1]
  apparent KD of MS2 coat protein: 204 nM
Input ligand: none
  apparent KD of MS2 coat protein: 355 nM

## UUGAAGAAUUAAGGAUAUUGAAUACAUAUGUUUAACAUGAGGAUCACCCAUGUGGGUUGCGGUGUCGAGAAGGUAAAUUACUAG [JL SSNG2 1.50] (Eterna round: R96, puzzle: Same State NG 2)
Input ligand: FMN 200 uM
  apparent KD of MS2 coat protein: 256 nM
[1]
  apparent KD of MS2 coat protein: 177 nM
Input ligand: none
  apparent KD of MS2 coat protein: 207 nM

## UUGAUUAACGUAGGAUAUCGACCUACAUGAGGAUCACCCAUGUCUUUGUAUAGUUUUUUUUGUUACGAGAAGGACGUUAUGUAU [JR_SSNG2_Sub067] (Eterna round: R96, puzzle: Same State NG 2)
Input ligand: FMN 200 uM
  apparent KD of MS2 coat protein: 78.6 nM
[1]
  apparent KD of MS2 coat protein: 100 nM
Input ligand: none
  apparent KD of MS2 coat protein: 106 nM

## UUGGUUCUCGUAGGAUAUGUAGGAUAUGCCUACAUGAGGAUCACCCAUGUUCGCAUGGCAGAAGGACAGAAGGACGAUCACCAU [pwkr ssNG2 2FMN + 1F5.17] (Eterna round: R96, puzzle: Same State NG 2)
[1]
  apparent KD of MS2 coat protein: 136 nM

## UUGGUUGUCGUAGGAUAUGUAGGAUAUUCCUACAUGAGGAUCACCCAUGUUCGCAUGGAAGAAGGACAGAAGGACGAUGACCAU [pwkr ssNG2 2FMN + 1F5.20] (Eterna round: R96, puzzle: Same State NG 2)
Input ligand: FMN 200 uM
  apparent KD of MS2 coat protein: 16.8 nM
[1]
  apparent KD of MS2 coat protein: 904 nM
Input ligand: none
  apparent KD of MS2 coat protein: 836 nM

## UUUACAUUACGAGGAUAUCAUUUAUUUCAUGUUUGAGAAGGCGUUUUUUUUAUUACCUUACAUGAGGAUCACCCAUGUUUCUUU [JR_SSNG1_Sub043] (Eterna round: R96, puzzle: Same State NG 1)
[1]
  apparent KD of MS2 coat protein: 26.2 nM

## UUUAGAUCGCGAGGAUAUCGCGAGGAUCACCCGUGAGAAGGCGCAGAGCCGAGGAUCACCCGGCUGAUCCUGAGAAGGAGGUCU (Eterna round: R96, puzzle: Same State NG 1)
Input ligand: FMN 200 uM
  apparent KD of MS2 coat protein: 45.1 nM
[1]
  apparent KD of MS2 coat protein: 87.7 nM
Input ligand: none
  apparent KD of MS2 coat protein: 129 nM

## UUUAGUUGCGGGCAGGAUAUGUAUUAAAAUACAUGAGGAUCACCCAUGUGCGGGUGUAACACCCGACAGAAGGGCCAAUCGCGAC [Laonerce - 13] (puzzle: Same State 2)
[3]
  apparent KD of MS2 coat protein: 220 nM

## UUUAUUAAUAUAGGAUAUGUAAAACAUGAGGAUCACCCAUGUGAUAUCGUGAGUAAGGAGAGAGAACAGAAGGAUAAUUUUUUU [JMF's solution 2] (Eterna round: R96, puzzle: Same State NG 2)
Input ligand: FMN 200 uM
  apparent KD of MS2 coat protein: 39.7 nM
[1]
  apparent KD of MS2 coat protein: 35.1 nM
Input ligand: none
  apparent KD of MS2 coat protein: 32.5 nM
